Earlier results as cited in article PMC8525647.

Biological target: RAG2 (Homo sapiens) (UniProt P55895)
Sequence of UniProt P55895 (P55895 whole entry): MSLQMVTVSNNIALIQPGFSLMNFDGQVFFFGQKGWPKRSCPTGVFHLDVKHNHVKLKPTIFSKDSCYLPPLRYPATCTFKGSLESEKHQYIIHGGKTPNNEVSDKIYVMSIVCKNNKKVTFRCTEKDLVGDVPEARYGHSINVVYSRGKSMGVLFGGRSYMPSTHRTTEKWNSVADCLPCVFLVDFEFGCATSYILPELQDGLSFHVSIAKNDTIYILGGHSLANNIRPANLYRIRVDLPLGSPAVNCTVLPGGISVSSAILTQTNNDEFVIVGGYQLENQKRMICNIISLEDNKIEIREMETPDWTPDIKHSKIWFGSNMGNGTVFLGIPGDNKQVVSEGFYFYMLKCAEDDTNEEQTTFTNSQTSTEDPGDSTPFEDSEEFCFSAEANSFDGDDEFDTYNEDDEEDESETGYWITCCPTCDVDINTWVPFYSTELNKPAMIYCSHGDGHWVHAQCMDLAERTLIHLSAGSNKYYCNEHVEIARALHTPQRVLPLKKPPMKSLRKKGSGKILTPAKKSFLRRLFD

For RAG1 (from UniProt P15918), the Kd is given as 400 nM.
